One experiment concerns the target T1, HLA-A*01:01 (human).
T1 construct: Peptide-receptive MHC class I monomer: a UV-sensitive peptide (not specified) is cleaved and exchanged with the test peptide
In words: UV peptide exchange, anti-b2m ELISA; exchange yield grade. Background: ELISA stands for enzyme-linked immunosorbent assay.
Turning to LIDSLLLLL, the peptide exchange yield was in the range of 50 to 75%.

With FTQKINSTW, the peptide exchange yield lay within 20 to 50%.

Take DVDIHKDLY: the peptide exchange yield is no less than 75%.

Consider RADEEQASF, for which the peptide exchange yield is 20 to 50%.

ETNTIEFIY had a peptide exchange yield of no less than 75%.

In turn, EAAPNIMHY returned a peptide exchange yield of 20 to 50%.

Regarding SADTAELLL, the peptide exchange yield was 20 to 50%.

As for LNFSDVFLY, the peptide exchange yield is 20 to 50%.

In turn, FSEIFQDFL came in with a peptide exchange yield of 50 to 75%.

Consider ASSPVILLL, for which the peptide exchange yield lay in the range of 20 to 50%.

Turning to VSPDEVLALW, the peptide exchange yield lay in the range of 20 to 50%.

NSDLFYLLL registered a peptide exchange yield of no less than 75%.

For the molecule YSSEIWDLY, the peptide exchange yield was no less than 75%.

With NSENLLVY, the peptide exchange yield is 50 to 75%.

TVDKGELLY returned a peptide exchange yield of no less than 75%.

Consider NVSFEVSLLY, for which the peptide exchange yield was no less than 75%.

A further experiment concerns the target T2, HLA-A*24:02 (human).
T2 construct: Peptide-receptive MHC class I monomer in the UV-ligand exchange assay
The description is as above.
IYIPTNSIYKF: the binding result is given as “binds”.

Take LYIFTTRPF: the binding result is on record as “binds”.

For VQSGVPSRF, the binding result is “binds”.

In the case of LYQTTIELF, the binding result is recorded as “binds”.

As for GRFWLPFNF, the binding result is recorded as “binds”.

Take VFIPSVINL: the binding result is “binds”.

With AYIPFPPLI, the binding result was “binds”.

Turning to KYPTIICGF, the binding result was “binds”.

For SHSLPAFTL, the binding result is “binds”.

Take SFSLLLPYL: the binding result was “binds”.

IYFHLNNWTI: the binding result was “binds”.

The next experiment has as its target HLA-B*44:05 (human). The description is as above.
With VEAPHLPSF, the binding result is “binds”.

Take SQAKQITIW: the binding result is “binds”.

Regarding METADRPEW, the binding result is on record as “binds”.

For REQLDGATL, the binding result is listed as “binds”.

As to REVAGASAL, the binding result is given as “binds”.

As for WETRLHNLW, the binding result is listed as “binds”.

Turning to RELGVGIAL, the binding result is given as “binds”.

Turning to TEIGTVIKLF, the binding result is on record as “binds”.

On to GEAAAARPV, for which the binding result is “binds”.

As for KEIEAQEAA, the binding result is “binds”.

EEGRIITKW: the binding result is recorded as “binds”.

Regarding TEMSVSALY, the binding result is on record as “binds”.

With VEGVHFVQLL, the binding result was “binds”.

On to FDLNIGSAY, for which the binding result was “binds”.

Consider AEGPDHHSL, for which the binding result is “binds”.

On to AETKQFWSA, for which the binding result is reported as “binds”.

On to KEFAFLEHSL, for which the binding result is reported as “binds”.

A further experiment has as its target T2, HLA-A*24:02. Nature of the experiment: allele assigned to HLA ligand eluted from tissue (IP, LC-MS).
Regarding VWILQKVNLAF, the binding result is given as “binds”.

As to AWNESSAWLL, the binding result is listed as “binds”.

VLYPSHSSF: the binding result is on record as “binds”.

On to VFLLLPYPRF, for which the binding result is on record as “binds”.

On to VYIASSFKI, for which the binding result is “binds”.

(Values after patent publication US20240358755A1 (IMMATICS BIOTECHNOLOGIES, published 2024).)
